Measured values taken from PMC314469, “Protein Interaction Networks by Proteome Peptide Scanning” (PLoS Biology, 2004).

T1: amphyphisin SH3 (AMPH_HUMAN), P49418
T1 chain: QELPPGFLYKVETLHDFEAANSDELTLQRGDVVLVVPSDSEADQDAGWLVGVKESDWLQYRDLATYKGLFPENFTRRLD


These binders were tested against endophilin SH3 (SH3G2_HUMAN), Q99962 (assay: SPOT array).
In the case of EALKLRRPPDASGA [P24530 73-86], the normalised SPOT signal, Boehringer light units (BLU); mean over the file's lines of this peptide is reported as 42.8. DTYRPKRPTTLNLF [Q9UQF2 154-167] showed a normalised SPOT signal, Boehringer light units (BLU); mean over the file's lines of this peptide of 1540. Work on DVLSPLRPSRRHFP [Q12756 1091-1104] yielded a normalised SPOT signal, Boehringer light units (BLU); mean over the file's lines of this peptide of 2630. In the case of DTTSPSRPPGGPII [Q9Y2E5 978-992], the normalised SPOT signal, Boehringer light units (BLU); mean over the file's lines of this peptide is reported as 72.7. With EAQFFLRPLRSYGD [P78357 768-781] the normalised SPOT signal, Boehringer light units (BLU); mean over the file's lines of this peptide was 104. In the case of EALEIPRPLRALDQ [Q9HCK4 1228-1241], the normalised SPOT signal, Boehringer light units (BLU); mean over the file's lines of this peptide is reported as 0. DVTDPKRPLSFGVT [Q9P2C6 232-245] showed a normalised SPOT signal, Boehringer light units (BLU); mean over the file's lines of this peptide of 37.5. For DTLNIRRPLVKMVY [Q9P0U0 373-386], the normalised SPOT signal, Boehringer light units (BLU); mean over the file's lines of this peptide was 60.9. With DVPAFVRPARVEPT [Q9C0A3 802-815] the normalised SPOT signal, Boehringer light units (BLU); mean over the file's lines of this peptide was 72.7. For EARKPAKPPVSPKP [Q8WXD9 1216-1230], the normalised SPOT signal, Boehringer light units (BLU); mean over the file's lines of this peptide was 1650. Binder EAGSPRRPRRQRSD [Q15015 1069-1082] has a normalised SPOT signal, Boehringer light units (BLU); mean over the file's lines of this peptide of 377. EASGPERPPALLQE [Q03431 573-587] showed a normalised SPOT signal, Boehringer light units (BLU); mean over the file's lines of this peptide of 62.6. DTPPPSRPEKKKAD [P12111 1626-1639] showed a normalised SPOT signal, Boehringer light units (BLU); mean over the file's lines of this peptide of 101. With EADSIPRPYRSQQS [O15015 40-53] the normalised SPOT signal, Boehringer light units (BLU); mean over the file's lines of this peptide was 0. In the case of DVIIPAKPPVSFFS [Q96K45 88-102], the normalised SPOT signal, Boehringer light units (BLU); mean over the file's lines of this peptide is reported as 53.1. Work on AEMTFRRPAQAFPV [P07949 672-685] yielded a normalised SPOT signal, Boehringer light units (BLU); mean over the file's lines of this peptide of 116. DVVPPIKPPKEIED [O14967 255-269] was tested, and the normalised SPOT signal, Boehringer light units (BLU); mean over the file's lines of this peptide was 54.5.

Biological target: T1, amphyphisin SH3 (AMPH_HUMAN), P49418
Experiment: SPOT array
EALKLRRPPDASGA [P24530 73-86] was tested, and the normalised SPOT signal, Boehringer light units (BLU); mean over the file's lines of this peptide was 35.9. With DTYRPKRPTTLNLF [Q9UQF2 154-167] the normalised SPOT signal, Boehringer light units (BLU); mean over the file's lines of this peptide was 75.1. With DVLSPLRPSRRHFP [Q12756 1091-1104] the normalised SPOT signal, Boehringer light units (BLU); mean over the file's lines of this peptide was 9010. For DTTSPSRPPGGPII [Q9Y2E5 978-992], the normalised SPOT signal, Boehringer light units (BLU); mean over the file's lines of this peptide was 36.5. EAQFFLRPLRSYGD [P78357 768-781] was tested, and the normalised SPOT signal, Boehringer light units (BLU); mean over the file's lines of this peptide was 3170. For EALEIPRPLRALDQ [Q9HCK4 1228-1241], the normalised SPOT signal, Boehringer light units (BLU); mean over the file's lines of this peptide was 0. For DVTDPKRPLSFGVT [Q9P2C6 232-245], the normalised SPOT signal, Boehringer light units (BLU); mean over the file's lines of this peptide was 1.7. In the case of DTLNIRRPLVKMVY [Q9P0U0 373-386], the normalised SPOT signal, Boehringer light units (BLU); mean over the file's lines of this peptide is reported as 24.3. DVPAFVRPARVEPT [Q9C0A3 802-815] was tested, and the normalised SPOT signal, Boehringer light units (BLU); mean over the file's lines of this peptide was 4540. With EARKPAKPPVSPKP [Q8WXD9 1216-1230] the normalised SPOT signal, Boehringer light units (BLU); mean over the file's lines of this peptide was 53.6. EAGSPRRPRRQRSD [Q15015 1069-1082] was tested, and the normalised SPOT signal, Boehringer light units (BLU); mean over the file's lines of this peptide was 8310. Work on EASGPERPPALLQE [Q03431 573-587] yielded a normalised SPOT signal, Boehringer light units (BLU); mean over the file's lines of this peptide of 52.1. DTPPPSRPEKKKAD [P12111 1626-1639] was tested, and the normalised SPOT signal, Boehringer light units (BLU); mean over the file's lines of this peptide was 78.7. For EADSIPRPYRSQQS [O15015 40-53], the normalised SPOT signal, Boehringer light units (BLU); mean over the file's lines of this peptide was 10.4. Work on DVIIPAKPPVSFFS [Q96K45 88-102] yielded a normalised SPOT signal, Boehringer light units (BLU); mean over the file's lines of this peptide of 15.7. AEMTFRRPAQAFPV [P07949 672-685] showed a normalised SPOT signal, Boehringer light units (BLU); mean over the file's lines of this peptide of 26.9. With DVVPPIKPPKEIED [O14967 255-269] the normalised SPOT signal, Boehringer light units (BLU); mean over the file's lines of this peptide was 43.9.
